Results reported in article PMC4520625 (Biochemistry, 2015).
Ends that are not written are not given here. * marks the point of attachment. Galβ1,3GalNAcα = CC(=O)N[C@@H]1[C@@H](O[C@@H]2O[C@H](CO)[C@H](O)[C@H](O)[C@H]2O)[C@@H](O)[C@@H](CO)O[C@@H]1*

B1: asialofetuin (ASF), unlabeled (natural protein, UniProt P12763 19-359, looked up)
chain: IPLDPVAGYKEPACDDPDTEQAALAAVDYINKHLPRGYKHTLNQIDSVKVWPRRPTGEVYDIEIDTLETTCHVLDPTPLANCSVRQQTQHAVEGDCDIHVLKQDGQFSVLFTKCDSSPDSAEDVRKLCPDCPLLAPLNDSRVVHAVEVALATFNAESNGSYLQLVEISRAQFVPLPVSVSVEFAVAATDCIAKEVVDPTKCNLLAEKQYGFCKGSVIQKALGGEDVRVTCTLFQTQPVIPQPQPDGAEAEAPSAVPDAAGPTPSAAGPPVASVVVGPSVVAVPLPLHRAHYDLRHTFSGVASVESSSGEAFHVGKTPIVGQPSIPGGPVRLCPGRIRYFKI
modifications: three complex-type N-glycans (asialo)

Columns and labels:
His-tagged galectin-3 = His-tagged galectin-3 (human, UniProt P17931 1-250); experiment: AlphaScreen or HTRF
Chain of His-tagged galectin-3 (P17931 whole entry): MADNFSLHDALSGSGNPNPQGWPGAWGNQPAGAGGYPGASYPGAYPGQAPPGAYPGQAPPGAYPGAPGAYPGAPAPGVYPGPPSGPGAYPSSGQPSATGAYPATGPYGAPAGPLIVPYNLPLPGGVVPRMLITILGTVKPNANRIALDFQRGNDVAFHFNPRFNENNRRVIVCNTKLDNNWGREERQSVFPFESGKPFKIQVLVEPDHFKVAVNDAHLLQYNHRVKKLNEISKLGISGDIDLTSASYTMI

[1] = target: full-length human galectin-3 (human, UniProt P17931 1-250); experiment: ITC
Chain of full-length human galectin-3 (P17931 whole entry): as above

Binder | IC50 (His-tagged galectin-3) | Ka [1] | dH [1] | stoichiometry N [1]
B1 | 2.3 nM |  |  | 
HGVT(Galβ1,3GalNAcα)SAPDTRPAPGS [MUC1(1-15)-Thr4 truncated glycopeptide carrying the TF antigen] |  | 7600 M⁻¹ | -1.79 kcal/mol | 0.87
HGVT(Galβ1,3GalNAcα)SAPD [MUC1(1-8)-Thr4 truncated glycopeptide carrying the TF antigen] |  | 2900 M⁻¹ | -1.32 kcal/mol | 0.97
